Measurements reported in IntAct's records for PubMed 14681217.

B1: Integrin beta-7 (Homo sapiens), P26010 (parent)
chain: MVALPMVLVLLLVLSRGESELDAKIPSTGDATEWRNPHLSMLGSCQPAPSCQKCILSHPSCAWCKQLNFTASGEAEARRCARREELLARGCPLEELEEPRGQQEVLQDQPLSQGARGEGATQLAPQRVRVTLRPGEPQQLQVRFLRAEGYPVDLYYLMDLSYSMKDDLERVRQLGHALLVRLQEVTHSVRIGFGSFVDKTVLPFVSTVPSKLRHPCPTRLERCQSPFSFHHVLSLTGDAQAFEREVGRQSVSGNLDSPEGGFDAILQAALCQEQIGWRNVSRLLVFTSDDTFHTAGDGKLGGIFMPSDGHCHLDSNGLYSRSTEFDYPSVGQVAQALSAANIQPIFAVTSAALPVYQELSKLIPKSAVGELSEDSSNVVQLIMDAYNSLSSTVTLEHSSLPPGVHISYESQCEGPEKREGKAEDRGQCNHVRINQTVTFWVSLQATHCLPEPHLLRLRALGFSEELIVELHTLCDCNCSDTQPQAPHCSDGQGHLQCGVCSCAPGRLGRLCECSVAELSSPDLESGCRAPNGTGPLCSGKGHCQCGRCSCSGQSSGHLCECDDASCERHEGILCGGFGRCQCGVCHCHANRTGRACECSGDMDSCISPEGGLCSGHGRCKCNRCQCLDGYYGALCDQCPGCKTPCERHRDCAECGAFRTGPLATNCSTACAHTNVTLALAPILDDGWCKERTLDNQLFFFLVEDDARGTVVLRVRPQEKGADHTQAIVLGCVGGIVAVGLGLVLAYRLSVEIYDRREYSRFEKEQQQLNWKQDSNPLYKSAITTTINPRFQEADSPTL

Variants of: B1
Details: with ita4_human ITGA4, P13612
Sequence of ita4_human ITGA4, P13612 (P13612 whole entry): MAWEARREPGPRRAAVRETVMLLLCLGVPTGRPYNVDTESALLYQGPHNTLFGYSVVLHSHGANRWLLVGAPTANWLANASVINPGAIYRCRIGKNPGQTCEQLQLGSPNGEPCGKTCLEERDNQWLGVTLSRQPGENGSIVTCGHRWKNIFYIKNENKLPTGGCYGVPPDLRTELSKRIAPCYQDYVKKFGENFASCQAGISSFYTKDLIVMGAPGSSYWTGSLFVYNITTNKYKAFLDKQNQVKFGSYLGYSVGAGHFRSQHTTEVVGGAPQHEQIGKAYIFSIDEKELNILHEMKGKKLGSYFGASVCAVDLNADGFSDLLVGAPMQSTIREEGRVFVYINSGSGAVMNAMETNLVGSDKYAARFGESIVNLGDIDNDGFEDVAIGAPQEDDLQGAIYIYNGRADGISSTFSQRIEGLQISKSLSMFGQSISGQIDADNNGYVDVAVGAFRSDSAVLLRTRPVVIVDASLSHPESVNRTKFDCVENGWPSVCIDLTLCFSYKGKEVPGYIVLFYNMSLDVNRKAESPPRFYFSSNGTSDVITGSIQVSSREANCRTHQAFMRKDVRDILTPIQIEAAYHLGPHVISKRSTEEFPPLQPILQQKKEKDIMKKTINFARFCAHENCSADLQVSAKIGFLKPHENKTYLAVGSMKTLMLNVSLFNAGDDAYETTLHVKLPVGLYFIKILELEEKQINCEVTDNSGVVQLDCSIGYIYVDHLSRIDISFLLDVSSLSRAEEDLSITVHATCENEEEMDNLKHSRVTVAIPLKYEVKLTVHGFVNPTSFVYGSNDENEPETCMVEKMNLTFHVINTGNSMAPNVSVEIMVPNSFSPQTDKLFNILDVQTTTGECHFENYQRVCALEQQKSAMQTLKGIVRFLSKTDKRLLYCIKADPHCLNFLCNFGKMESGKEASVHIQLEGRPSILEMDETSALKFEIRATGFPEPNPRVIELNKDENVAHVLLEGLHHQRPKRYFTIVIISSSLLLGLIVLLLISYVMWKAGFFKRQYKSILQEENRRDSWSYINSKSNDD

effect of a mutation on the interaction | Variant
decreasing interaction | G730I
decreasing interaction | G734I
